Here are results for 35 molecules from patent US20060193821, “Aptamers to the human IL-12 cytokine family and their use as autoimmune disease therapeutics” (published 2006).

To fix the notation:
B1: rRmY clone SEQ 87 (ssRNA)
RNA: AGGAGAGGAGAGAACGUUCUACUAGAAGCAGGCUCGAAUACAAUUCGGAAGUCGCUGUCGAUCGAUCGAUCGAUG
modifications: 2'-OMe C,U
B2: rRmY clone SEQ 73 (ssRNA)
RNA: GGGAGAGGAGAGAACGUUCUACAAAUGAGAGCAGGCCGAAAAGGAGUCGCUCGCUGUCGAUCGAUCGAUCGAUG
modifications: 2'-OMe C,U
B3: rRmY clone SEQ 71 (ssRNA)
RNA: B2 RNA with A41G
modifications: 2'-OMe C,U
B4: rRmY clone SEQ 78 (ssRNA)
RNA: B2 RNA with U26A
modifications: 2'-OMe C,U
B5: A10.min1 (ssRNA)
RNA: GGAGAUCAUACACAAGAAGUUUUUUGUGCUCUGAGUACUCAGCGUCCGUAAGGGAUCUCC
modifications: 2'-F C,U
B6: B10.min1 (ssRNA)
RNA: GGAGCGAAUCAUACACAAGAAGUGCUUCAUGCGGCAAACUGCAUGACGUCGAAUAGAUAUGCUCC
modifications: 2'-F C,U
B7: C10.1 (ssRNA)
RNA: GGACACAAGAGAUGUAUUCAGGCGGUCCGCAUUGAUGUCAGUUAUGCGUAGCUCCGCC
modifications: 2'-F C,U
B8: C11.1 (ssRNA)
RNA: GGAAGAAUGGUCGGAAUCUCUGGCGCCACGCUGAGUAUAGACGGAAGCUCCGCCAGA
modifications: 2'-F C,U
B9: ARC1167 (mixed)
RNA: ACAGGCAAGUAAUUGGGGAGUGCGGGCGGGGUGU
modifications: deoxy A,G; 2'-OMe C,U; PS 28-29 [PS linkage 28-29; 2'-OMe C,U at 2,6,10,13,14,21,23,27,32,34; all A,G 2'-deoxy]
B10: ARC1159 (mixed)
RNA: B9 RNA
modifications: deoxy A,G; 2'-OMe C,U; PS 14-15 [PS between 14-15; 2'-OMe C,U at 2,6,10,13,14,21,23,27,32,34; deoxy A,G at all other positions]
B11: ARC1157 (mixed)
RNA: B9 RNA
modifications: deoxy A,G; 2'-OMe C,U; PS 12-13 [PS between 12-13; 2'-OMe C,U at 2,6,10,13,14,21,23,27,32,34; deoxy A,G at all other positions]
B12: ARC1168 (mixed)
RNA: B9 RNA
modifications: deoxy A,G; 2'-OMe C,U; PS 32-33 [PS linkage 32-33; 2'-OMe C,U at 2,6,10,13,14,21,23,27,32,34; all A,G 2'-deoxy]
B13: ARC1169 (mixed)
RNA: B9 RNA
modifications: deoxy A,G; 2'-OMe C,U; PS 33-34 [PS linkage 33-34; 2'-OMe C,U at 2,6,10,13,14,21,23,27,32,34; all A,G 2'-deoxy]
B14: ARC1156 (mixed)
RNA: B9 RNA
modifications: deoxy A,G; 2'-OMe C,U; PS 11-12 [PS between 11-12; 2'-OMe C,U at 2,6,10,13,14,21,23,27,32,34; deoxy A,G at all other positions]
B15: ARC1158 (mixed)
RNA: B9 RNA
modifications: deoxy A,G; 2'-OMe C,U; PS 13-14 [PS between 13-14; 2'-OMe C,U at 2,6,10,13,14,21,23,27,32,34; deoxy A,G at all other positions]
B16: ARC1164 (mixed)
RNA: B9 RNA
modifications: deoxy A,G; 2'-OMe C,U; PS 22-23 [PS between 22-23; 2'-OMe C,U at 2,6,10,13,14,21,23,27,32,34; deoxy A,G at all other positions]
B17: ARC1155 (mixed)
RNA: B9 RNA
modifications: deoxy A,G; 2'-OMe C,U; PS 10-11 [PS between 10-11; 2'-OMe C,U at 2,6,10,13,14,21,23,27,32,34; deoxy A,G at all other positions]
B18: ARC1166 (mixed)
RNA: B9 RNA
modifications: deoxy A,G; 2'-OMe C,U; PS 27-28 [PS between 27-28; 2'-OMe C,U at 2,6,10,13,14,21,23,27,32,34; deoxy A,G at all other positions]
B19: ARC1165 (mixed)
RNA: B9 RNA
modifications: deoxy A,G; 2'-OMe C,U; PS 26-27 [PS between 26-27; 2'-OMe C,U at 2,6,10,13,14,21,23,27,32,34; deoxy A,G at all other positions]
B20: AMX86-G10 (ssRNA)
RNA: GGGAAAAGCGAAUCAUACACAAGAGUCAUGGCUUACAAUUGAAACAAGAGCUCGCGUGACACAUGCUCCGCCAGAGACCAACCGAGAA
modifications: 2'-F C and U, 2'-OH A and G
B21: AMX91-B5 (ssRNA)
RNA: GGGAAAAGCGAAUCAUACACAAGACAGUGUAUGAGGAAGAUUACUUCCAUUCCUGAGCGGUUUUCGCUCCGCCAGAGACCAACCGAGAA
modifications: 2'-F C and U, 2'-OH A and G
B22: AMX84-E12 (ssRNA)
RNA: GGGAAAAGCGAAUCAUACACAAGAAGUUUUUGUGCUCUGAGUACUCAGCGUCCGUAAGGGAUAUGCUCCGCCAGAGACCAACCGAGAA
modifications: 2'-F C and U, 2'-OH A and G

Positions count from the first letter of the chain named.

The target of the first series is T1, IL-23 (human, p19/p40 heterodimer) (Homo sapiens, UniProt Q9NPF7;P29460 SEQ:20-189,SEQ:23-328). Kind of series: filter; DPBS Ca Mg. The note with it: tags: R&D Systems, carrier free. The procedure: The selection progress was monitored using the dot blot sandwich filter binding assay as described in Example 1A. The 5′-³²P-labeled pool RNA was refolded at 90° C. for 3 minutes and cooled to room temperature for 10 minutes. Next, pool RNA (trace concentration) was incubated with h-IL-23 DPBS plus 0.1 mg/mL tRNA for 30 minutes at room temperature and then applied to a nitrocellulose and nylon filter sandwich in a dot blot apparatus (Schleicher and Schuell). The percentage of pool RNA bound to the nitrocellulose was calculated and monitored approximately every 3 rounds with a single point screen (+/−250 nM h-IL-23). Pool KD measurements were measured using a titration of h-IL-23 protein (R&D, Minneapolis, Minn.) and the dot blot apparatus as described above.
T1 sequence (Q9NPF7 20-189, chain 1 of 2): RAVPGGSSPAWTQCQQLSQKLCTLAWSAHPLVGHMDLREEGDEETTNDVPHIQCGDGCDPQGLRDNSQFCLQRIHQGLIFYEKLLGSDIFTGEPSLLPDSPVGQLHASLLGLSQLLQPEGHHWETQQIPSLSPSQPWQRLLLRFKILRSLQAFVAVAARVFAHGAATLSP
T1 sequence (P29460 23-328, chain 2 of 2): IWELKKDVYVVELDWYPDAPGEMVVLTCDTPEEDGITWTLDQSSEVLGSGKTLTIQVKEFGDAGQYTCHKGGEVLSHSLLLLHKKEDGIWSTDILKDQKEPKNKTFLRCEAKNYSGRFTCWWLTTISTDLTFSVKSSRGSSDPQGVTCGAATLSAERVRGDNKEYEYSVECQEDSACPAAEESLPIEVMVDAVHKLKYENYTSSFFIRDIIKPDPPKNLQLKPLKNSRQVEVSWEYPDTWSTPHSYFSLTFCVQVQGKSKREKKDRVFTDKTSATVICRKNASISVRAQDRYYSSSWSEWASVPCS
The rRmY h-IL-23 selection was enriched for h-IL-23 binding vs. the naïve pool after 4 rounds of selection (data not shown). The selection stringency was increased and the selection was continued for 8 more rounds. […] The rGmH selection was enriched over the naïve pool binding at Round 10. […] FIG. 7 is a binding curve of rRmY and rGmH pool selection binding to h-IL-23. The pools were cloned using TOPO TA cloning kit (Invitrogen, Carlsbad, Calif.) and individual sequences were generated and tested for binding. A single point binding screen was initially performed on all crude rRmY clone transcriptions using a 1:200 dilution, +/−200 nM IL-23, plus 0.1 mg/mL competitor tRNA. […] The 10 point screen was performed using zero to 480 nM IL-23 in 3 fold serial dilutions. Binding curves were generated (KaleidaGraph v. 3.51, Synergy Software) and KDs were estimated by fitting the data to the equation: fraction RNA bound=amplitude[h-IL-23]/KD+[h-IL-23]). […] There was one group of 6 duplicate sequences and 4 pairs of 2 duplicate sequences out of the rRmY clones generated. […] Clones were also tested from 48 crude rGmH clone transcriptions at a 1:200 dilution and 0.1 mg/mL tRNA was used as competitor.
Take B1: the dissociation constant Kd is 122 nM. As for B2, the equilibrium dissociation constant (Kd) stood at 101 nM. Consider B3, for which the Kd was found to be 124 nM. B4: the Kd is 124 nM.

The target of a further series is T1, IL-23 (human, p19/p40 heterodimer). Kind of series: filter; 100 nM IL-23. To be noted: tags: R&D Systems, carrier free.
On to GGAGUCUGAGUACUCAGCGUCCGUAAGGGAUAUGCUCCGCCAGACUCC (ssRNA, 2'-F C,U) [A10.min2], for which the binding signal was 6 +/- ratio. GGAUACCCGAGAGGGCUGGCGAAAGCCUCGGCGAGAGCUAUCC (ssRNA, 2'-F C,U) [Type 1.3]: the binding signal was 0.6 +/- ratio. Take B5: the binding signal was 3.1 +/- ratio. The same measure, in the same setting: the same measure for GGAAUCAUACCGAGAGGUAUUACCCCGAAAGGGGACCAUUCC (ssRNA, 2'-F C,U) [Type 2.1]: 5.2 +/- ratio; for GGAUCAUACACAAGAAGUGCUUCACGAAAGUGACGUCGAAUAGAUCC (ssRNA, 2'-F C,U) [B10.min3]: 0.8 +/- ratio.

For B6, the binding signal is 33.9 +/- ratio. Take GGAGGCGCCACGCUGAGUAUAGACGGAAGCUCCGCCUCC (ssRNA, 2'-F C,U) [C11.2]: the binding signal is 2.3 +/- ratio. As for GGAGUCUGAGUACUCAGCGUCCCGAGAGGGGAUAUGCUCCGCCAGACUCC (ssRNA, 2'-F C,U) [A10.min4], the binding signal is 0.7 +/- ratio. On the same count and under the same terms, with B7 the figure was 4.4 +/- ratio; with GGAAUCAUACACAAGAGUGUAUUACCCCCAACCCAGGGGGACCAUUCC (ssRNA, 2'-F C,U) [D9.1], 3.9 +/- ratio.

As for B8, the binding signal is 3.5 +/- ratio. Turning to GGUUAAAUCUCAUCGUCCCCGUUUGGGGAU (ssRNA, 2'-F C,U) [F11.min1], the binding signal is 0.6 +/- ratio. Take GGCAUACACGAGAGUGCUGUCGAAAGACUCGGCCGAGAGGCUAUGCC (ssRNA, 2'-F C,U) [Type 1.1]: the binding signal was 0.9 +/- ratio. Regarding GGCAUACGCGAGAGCGCUGGCGAAAGCCUCGGCCGAGAGGCUAUGCC (ssRNA, 2'-F C,U) [Type 1.2], the binding signal was 0.7 +/- ratio.

Another series has the same target. The experiment in a line: filter; -tRNA. The note with it: tags: R&D Systems, carrier free. The procedure: These molecules were gel purified and assayed for IL-23 binding using the dot blot assay as described above and compared to each other and to the parent molecule, ARC979. An 8 point IL-23 titration (0 nM to 300 nM, 3 fold serial dilutions) was used in the binding assay.
Consider B9, for which the Kd worked out at 107 nM. For B10, binding was put at a Kd of 77 nM.

Turning to B11, the Kd is 69 nM. The molecule B12 had a Kd of 82 nM.

As for B13, the Kd came to 74 nM.

B14 yielded a Kd of 369 nM. Molecule ACAGGCAAGUAAUUGGGGAGUGCGGGCGGGGUGU (mixed, deoxy A,G; 2'-OMe C,U; PS 6-7) [ARC1151] displayed a Kd of 142 nM. The molecule B15 came in with a Kd of 192 nM. B16 came in with a Kd of 79 nM. Still for that read-out and setting: with B17 the figure was 168 nM; with B18, 132 nM; with B19, 55 nM.

ACAGGCAAGUAAUUGGGGAGUGCGGGCGGGGUGU (mixed, deoxy A,G; 2'-OMe C,U; PS 8-9) [ARC1153] returned a Kd of 174 nM. Take ACAGGCAAGUAAUUGGGGAGUGCGGGCGGGGUGU (mixed, deoxy A,G; 2'-OMe C,U; PS 7-8) [ARC1152]: the Kd is 232 nM.

A further series shares this target. The experiment in a line: cell_activity; TransAM STAT3, PHA blasts. The note with it: tags: R&D Systems. The procedure:
In summary, the cell-based assay was conducted by isolating the peripheral blood mononuclear cells (PBMCs) from whole blood using a Histopaque gradient (Sigma, St. Louis, Mo.). The PBMCs were cultured for 3 to 5 days at 37° C./5% CO₂ in Peripheral Blood Medium (Sigma) which contains PHA, supplemented with IL-2 (100 units/mL) (R&D Systems, Minneapolis, Minn.), to generate PHA Blasts. To test IL-23 aptamers, the PHA Blasts were washed twice with 1×PBS, then serum starved for four hours in RPMI, 0.20% FBS. After serum starvation, approximately 2 million cells were aliquotted into appropriately labeled eppendorf tubes. hIL-23 at a final constant concentration of 3 ng/mL (R&D Systems, Minneapolis, Minn.) was combined with a dilution series of various IL-23 aptamers as described in Example 1, and the cytokine/aptamer mixture was added to the aliquotted cells in a final volume of 100 μl and incubated at 37° C. for 10-12 minutes. The incubation reaction was stopped by adding 1 mL of ice-cold PBS with 1.5 mM Na₃VO₄. Cell lysates were made using the lysis buffer provided by the TransAM™ STAT 3 assay following the manufacturer's instructions. FIG. 20 depicts a flow summary of the protocol used for the cell based assay.
Full length clones from the rRfY selection described in Example 1A, and select minimized rRfY clones that were described in Example 2A. 1, were tested using the TransAM™ STAT3 activation assay. Table 34 summarizes the cell based assay data for IL-23 full length aptamers generated from the rRfY selections described in Example 1A. 1, each compared to the activity of their respective parent (full length) clone.
B20 registered a half-inhibitory concentration (IC50) of around 2000 nM.

B21 had a half-maximal inhibitory concentration (IC50) of 1000 nM. Take B22: the half-inhibitory concentration (IC50) was above 1000 nM.

In general, Kd refers to a measure of binding affinity in units of concentration. For orientation: IC50 means the midpoint of a concentration-inhibition curve. A low value points to inhibition by little substance.
